Assay [1] deals with T1, SiaD (Pseudomonas aeruginosa, UniProt A0A069QEY1). In words: HPLC DGC activity assay with […] c-di-GMP; thermal shift (+[…] ℃ at […]); SEC; inhibition abolished by R201A. The format is biochemical. Further details: gene pleD_6; full-length SiaD, alone and in the SiaC–SiaD complex.
Assay [2] has as its target T1, SiaD. In words: ITC (also HPLC assay of c-di-GMP production from GTP). Further details: gene pleD_6; SiaD alone, full length. The format is binding.
Assay [3] has as its target T1, SiaD. In words: X-ray crystal structure of SiaC–SiaD–GpCpp complex, […] Å. Type of assay: binding. Further details: gene pleD_6; full-length SiaD (redefined start at the upstream ATG codon); with SiaC (2:4 SiaD–SiaC complex).
The target of assay [4] is SiaD (full length, sumo-His tag removed) (Pseudomonas aeruginosa). Description: SEC-MALS; SiaD alone at 4 mg/ml, WTC-030S5 column, 20 mM HEPES pH 7.0, 150 mM NaCl, 1 mM DTT. In general terms: SEC sorts molecules by how far they enter the pores of the column.
The target is the same in assay [5]. Description: SAXS; synchrotron solution SAXS (SEC-SAXS for SiaD), 20 mM HEPES pH 8.0, 150 mM NaCl, 1 mM DTT, 25°C; 8 mg/ml SiaD or 11 mg/ml SiaC-SiaD complex.
Assay [6] shares this target. Description: crystal structure; SiaC-SiaD complex (10 mg/ml) with GpCpp 1:5, sitting drops at 18°C, space group C222(1), 2.65 Å.
Assay [7] shares this target. In words: SEC-MALS; single proteins: SiaC at 1.5 mg/ml, SiaD at 8 mg/ml, WTC-030S5 column, 20 mM HEPES pH 7.0, 150 mM NaCl, DTT.
For assay [8] the target is unchanged. In words: SEC-MALS; SiaC-SiaD complexes (wild type and SiaD motif mutants) at 2 mg/ml, WTC-030S5 column, 20 mM HEPES pH 7.0, 150 mM NaCl, DTT.
Assay [9] has the same target. In words: native gel or EMSA; blue native PAGE, 8% gel, SiaD (25 ug) alone or mixed with excess SiaC (35 ug), 50 min at 15 mA, Coomassie stain. (In general: A gel shift assay detects complexes by their altered migration in electrophoresis.)
Assay [10] deals with SiaD^S82A-Q86A (Pseudomonas aeruginosa). In words: SEC-MALS; SiaC-SiaD complexes (wild type and SiaD motif mutants) at 2 mg/ml, WTC-030S5 column, 20 mM HEPES pH 7.0, 150 mM NaCl, DTT.
Assay [11] concerns the target SiaD^S50A-Q54A (Pseudomonas aeruginosa). The assay is described as above.
The target of assay [12] is SiaD (full length, sumo-His tag removed) (Pseudomonas aeruginosa). In words: ITC; SiaD in the cell, SiaC or SiaC mutant in the syringe, 25°C, MicroCal iTC200 or PEAQ-ITC. Background: In ITC the heat of successive injections is recorded.
Assay [13] has the same target. Description: SPR; Biacore T200, protein amine-coupled to a CM5 chip (about 5000 RU), 25°C; running buffer 10 mM Tris-HCl, 150 mM NaCl, 0.05% P-20, pH 7.5; SiaC or SiaC^M3 at varying concentrations over SiaD; fits to a 2:1 interaction.

In the case of `Nc1nc2c(ncn2[C@@H]2O[C@@H]3CO[P@](=O)(O)O[C@H]4[C@@H](O)[C@H](n5cnc6c(=O)[nH]c(N)nc65)O[C@@H]4CO[P@](=O)(O)O[C@H]3[C@H]2O)c(=O)[nH]1` [c-di-GMP], at SiaD [1], the “HPLC DGC activity assay with 50 μM c-di-GMP; thermal shift (+7.1 °C at 25 μM); S” value is on record as “the enzyme activity of SiaD was inhibited by c-di-GMP more extensively than the SiaC–SiaD complex”.
On to `Nc1nc2c(ncn2[C@@H]2O[C@H](COP(=O)(O)OP(=O)(O)OP(=O)(O)O)[C@@H](O)[C@H]2O)c(=O)[nH]1` [GTP], for which, at SiaD [2], binding was characterised by a dissociation constant (Kd) of 12000 nM.
`Nc1nc2c(ncn2[C@@H]2O[C@H](COP(=O)(O)CP(=O)(O)OP(=O)(O)O)[C@@H](O)[C@H]2O)c(=O)[nH]1` [GpCpp]: the “X-ray crystal structure of SiaC-SiaD-GpCpp complex, 2.65 Å” value at SiaD [3] was “a non-hydrolyzable GTP analog GpCpp molecule was observed to bind in the active site of SiaD-A”.
On to “SiaD (full length, sumo-His tag removed) (enzyme)”, for which the stoichiometry N in assay [4] amounted to 5; in assay [5] it was 5; in assay [6], 2; in [7] it was 5; in [8], 2; in assay [9], 5.

B1: SiaC (sumo-His tag removed) (natural protein)
chain: MSDLHIPGTQSTPAIQGDWQAGRLSMQGDSYPENSYELFGQVIDWVERFLADGQRPLELDLRLLYLNTSSIKAMMDILDLLEEAHQGGRPVSLRWHYDRRNERVAELAEEFREDCSFPFAIQAHDE
In the case of B1, the stoichiometry N (SiaC per SiaD (2:4 SiaD:SiaC)) in assay [10] and in [11] was 2 throughout. This molecule also returned a Kd in [12] of 49.8 nM.

B2: SiaC-His (natural protein)
chain: MSDLHIPGTQSTPAIQGDWQAGRLSMQGDSYPENSYELFGQVIDWVERFLADGQRPLELDLRLLYLNTSSIKAMMDILDLLEEAHQGGRPVSLRWHYDRRNERVAELAEEFREDCSFPFAIQAHDE
In assay [13], B2 came in with a Kd of 11.8 nM.

For orientation: Kd means the free concentration of one partner at which half of the binding sites on the other are occupied at equilibrium, for simple one-to-one binding. A low value points to higher affinity. As a reminder, the stoichiometry N is a count of units in the complex or per binding partner.

These data come from publication PMC8457831, “Structural basis for diguanylate cyclase activation by its binding partner in Pseudomonas aeruginosa” (eLife, 2021).
